Where a chain is given by its changes, count along the chain named. Numbers in names are those of the source.

The source of these data is patent US20250230247A1 (DREN BIO, published 2025).

Experiment [1] has as its target T1, Trop-2 (human, UniProt P09758 27-323).
T1 construct: whole, on cells; also called Trop-2 on A431, HeLa, BxPC-3, SiHa and Capan-2 cells
T1 sequence (looked up): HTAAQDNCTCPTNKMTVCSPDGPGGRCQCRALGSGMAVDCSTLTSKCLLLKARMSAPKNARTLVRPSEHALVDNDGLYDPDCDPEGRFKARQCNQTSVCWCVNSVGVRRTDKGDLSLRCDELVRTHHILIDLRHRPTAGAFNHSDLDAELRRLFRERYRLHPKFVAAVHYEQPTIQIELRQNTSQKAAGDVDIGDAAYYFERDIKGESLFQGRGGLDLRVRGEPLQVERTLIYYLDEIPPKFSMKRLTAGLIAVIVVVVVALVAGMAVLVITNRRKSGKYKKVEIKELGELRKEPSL
The experiment can be described thus: flow cytometry on SiHa cells, AF647 goat anti-human secondary, 4PL fit; curve still rising (about 89,000 MFI) at the highest concentration, 300 nM. On the technique in general: A flow cytometer gives signals particle by particle.

Experiment [2] addresses T1, Trop-2. Briefly: flow cytometry on BxPC-3 cells, AF647 goat anti-human secondary, 4PL fit; curve still rising (about 3,500,000 MFI) at the highest concentration, 300 nM.
In experiment [3] the target is T1, Trop-2. Briefly: flow cytometry on A431 cells (MFI).
Experiment [4] has as its target T1, Trop-2. The experiment can be described thus: flow cytometry on HeLa cells, AF647 goat anti-human secondary, 4PL fit; curve plateaus at about 145,000 MFI at 100-300 nM.
The target in experiment [5] is T2, human Dectin-1 isoform A (human, UniProt Q9BXN2 1-247).
T2 construct: also called hDectin-1a; Dectin-1 on HEK-Blue hDectin-1a cells
T2 sequence: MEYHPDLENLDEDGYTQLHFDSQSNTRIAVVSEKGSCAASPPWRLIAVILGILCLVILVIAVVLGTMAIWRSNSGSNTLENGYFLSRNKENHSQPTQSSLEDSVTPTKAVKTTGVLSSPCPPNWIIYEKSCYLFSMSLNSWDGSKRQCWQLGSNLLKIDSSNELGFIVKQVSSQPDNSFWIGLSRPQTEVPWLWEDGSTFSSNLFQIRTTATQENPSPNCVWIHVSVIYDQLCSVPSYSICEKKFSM
Briefly: flow cytometry on HEK Blue Dectin 1a cells (MFI).

Experiment [6] deals with T1, Trop-2. Briefly: flow cytometry on Capan-2 cells, AF647 goat anti-human secondary, 4PL fit; curve reaches about 1,720,000 MFI at 300 nM and starts to flatten.
For the next experiment, the target named is T3, Nectin-4 (UniProt Q96NY8 32-510, limits assumed).
T3 construct: whole, on cells; also called PVRL4; Nectin-4 on A431 cells
T3 sequence (looked up): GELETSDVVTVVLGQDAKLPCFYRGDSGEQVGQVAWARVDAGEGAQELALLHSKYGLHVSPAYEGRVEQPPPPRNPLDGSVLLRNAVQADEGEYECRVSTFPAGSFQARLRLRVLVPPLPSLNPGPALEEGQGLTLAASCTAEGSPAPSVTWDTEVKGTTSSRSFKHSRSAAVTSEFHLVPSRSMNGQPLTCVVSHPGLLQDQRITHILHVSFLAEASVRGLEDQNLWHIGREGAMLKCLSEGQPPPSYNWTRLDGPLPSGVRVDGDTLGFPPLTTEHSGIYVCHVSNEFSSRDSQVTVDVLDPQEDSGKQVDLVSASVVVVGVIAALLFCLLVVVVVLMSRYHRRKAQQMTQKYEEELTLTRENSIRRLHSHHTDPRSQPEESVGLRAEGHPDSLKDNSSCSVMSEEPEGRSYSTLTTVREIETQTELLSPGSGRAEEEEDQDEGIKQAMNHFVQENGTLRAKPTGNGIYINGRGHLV
The experiment can be described thus: flow cytometry on Nectin-4-expressing A431 cells (lower panel), AF647 goat anti-human IgG secondary, 4PL fit; curve still rising (about 92,000 MFI) at 300 nM, no plateau.

The target of experiment [7] is T2, human Dectin-1 isoform A. Briefly: flow cytometry, HEK-Blue hDectin-1a cells.
For experiment [8], the target named is T2, human Dectin-1 isoform A. Briefly: flow cytometry on HEK-Blue hDectin-1a cells (summary table).
Experiment [9] addresses T2, human Dectin-1 isoform A. Briefly: flow cytometry on HEK293F hDectin-1a FL cells (summary table).
The target of experiment [10] is T2, human Dectin-1 isoform A. The experiment can be described thus: flow cytometry on HEK-Blue hDectin-1a cells.
Experiment [11] deals with T4, human Dectin-1 isoform B (human, UniProt Q9BXN2 1-247).
T4 construct: also called hDectin-1b; Dectin-1 on HEK Blue hDectin-1-b cells
T4 sequence: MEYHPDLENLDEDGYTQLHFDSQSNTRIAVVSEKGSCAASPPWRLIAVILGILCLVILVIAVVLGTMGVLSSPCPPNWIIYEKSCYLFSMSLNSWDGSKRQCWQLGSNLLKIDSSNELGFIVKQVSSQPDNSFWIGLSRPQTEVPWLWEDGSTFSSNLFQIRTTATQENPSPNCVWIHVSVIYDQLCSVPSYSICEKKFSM
Briefly: flow cytometry on HEK-Blue hDectin-1b cells.

Experiment [12] has as its target T4, human Dectin-1 isoform B. Briefly: flow cytometry on HEK-Blue hDectin-1b cells (summary table).
Experiment [13] addresses T2, human Dectin-1 isoform A. The experiment can be described thus: flow cytometry on HEK293F hDectin-1a FL cells.
Experiment [14] deals with T5, cynomolgus monkey Dectin-1 expressed on monocytes (cynomolgus monkey, UniProt A0A2K5UXY6 35-281).
T5 construct: whole, on cells; also called cynomolgus Dectin-1; cyno Dectin-1
T5 sequence: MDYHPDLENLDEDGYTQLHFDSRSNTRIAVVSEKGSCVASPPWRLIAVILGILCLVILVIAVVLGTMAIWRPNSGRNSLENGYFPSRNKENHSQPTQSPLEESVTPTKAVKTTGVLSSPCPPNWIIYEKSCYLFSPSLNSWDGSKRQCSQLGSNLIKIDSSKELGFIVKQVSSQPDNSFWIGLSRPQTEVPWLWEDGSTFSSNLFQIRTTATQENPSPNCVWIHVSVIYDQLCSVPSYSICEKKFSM
The experiment can be described thus: flow cytometry, cynomolgus monocytes.

For experiment [15], the target named is T6, human Dectin-1 (biosensor tests of Tables 3, 4A and 9; construct not stated) (human, UniProt Q9BXN2 66-247, limits assumed).
T6 construct: also called hDectin-1
T6 sequence (looked up): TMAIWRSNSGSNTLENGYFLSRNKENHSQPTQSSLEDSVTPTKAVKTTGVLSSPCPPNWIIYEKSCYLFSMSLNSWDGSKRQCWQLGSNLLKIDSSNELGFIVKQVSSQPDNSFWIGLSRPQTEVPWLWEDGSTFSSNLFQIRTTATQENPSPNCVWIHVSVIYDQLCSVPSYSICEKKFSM
The experiment can be described thus: Octet response. (In general: BLI is a label-free optical method that tracks binding on a fibre tip over time.)

For experiment [16], the target named is T6, human Dectin-1 (biosensor tests of …). The experiment can be described thus: Octet, single point off rate fit.
Experiment [17] has the same target. The experiment can be described thus: Octet.
For X = 340 in this document: time not given here.
For X = 470 in this document: time not given here.
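For delta in this document: Single-point dissociation rate (koff) fit for each variant binding domain, expressed as change versus the parental clone.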

B1: 2M24/Trop-2 hIgG1 bispecific antibody (bispecific antibody, V domains shown)
VH 1: QVQLVQSGAEVKKPGASVKVSCKSSGYTFTDYYIHWVRQAPGQGLEWMGWINPNSGDTNYAQKFQGRITMTRDTSISTAYLELSRLRSDDTAVFYCARNSGSYSFGYWGQGTLVTVSS
VL 1: DIQMTQSPSSVSASVGDRVTITCRASQGISSWLAWYQQKPGKAPKLLIFGASSLQSGVPSRFSGSGSGTDFTLTVSSLQPEDFATYYCQQAYSFPFTFGPGTKVDIE
VH 2: QVQLQQSGSELKKPGASVKVSCKASGYTFTNYGMNWVKQAPGQGLKWMGWINTYTGEPTYTDDFKGRFAFSLDTSVSTAYLQISSLKADDTAVYFCARGGFGSSYWYFDVWGQGSLVTVSS
VL 2: DIQLTQSPSSLSASVGDRVSITCKASQDVSIAVAWYQQKPGKAPKLLIYSASYRYTGVPDRFSGSGSGTDFTLTISSLQPEDFAVYYCQQHYITPLTFGAGTKVEIK
notes: human IgG1; also called anti-Dectin-1 (2M24)/anti-Trop-2 bispecific antibody
By EC50 is commonly meant the concentration at which the effect is half-maximal. Consider B1, for which the EC50 in the experiment with Trop-2 [1] worked out at 77.4 nM; in the experiment with Trop-2 [2], 348 nM; with Trop-2 [3], 9.04 nM; with Trop-2 [4], 26.2 nM; with human Dectin-1 isoform A [5] it was 0.958 nM; with Trop-2 [6] it was 59.4 nM.

B2: 2M24/Nectin-4 hIgG1 bispecific antibody (bispecific antibody, V domains shown)
VH 1: B1 VH 1
VL 1: B1 VL 1
VH 2: EVQLVESGGGLVQPGGSLRLSCAASGFTFSSYNMNWVRQAPGKGLEWVSYISSSSSTIYYADSVKGRFTISRDNAKNSLSLQMNSLRDEDTAVYYCARAYYYGMDVWGQGTTVTVSS
VL 2: DIQMTQSPSSVSASVGDRVTITCRASQGISGWLAWYQQKPGKAPKFLIYAASTLQSGVPSRFSGSGSGTDFTLTISSLQPEDFATYYCQQANSFPPTFGGGTKVEIK
notes: human IgG1; DuetMab mutations F126C and C220V (heavy), S121C and C214V (light)
Turning to B2, the half-maximal effective concentration (EC50) with Nectin-4 was approximately 32 nM.

B3: fully human 2M24 anti-Dectin-1 antibody (hIgG4) (antibody, V domains shown)
VH: B1 VH 1
VL: B1 VL 1
notes: human IgG4; also called 2M24 (hIgG4); hIgG4 2M24
B3 showed an EC50 in the experiment with human Dectin-1 isoform A [7] of 1.6 nM.

B4: anti-human Dectin-1 antibody clone 2M24 (mIgG1) (antibody, V domains shown)
VH: B1 VH 1
VL: B1 VL 1
notes: hybridoma antibody with human variable and mouse constant domains (mIgG1); also called 2M24 clone; mIgG1 2M24
As to B4, the concentration for a half-maximal effect (EC50) with human Dectin-1 isoform A [8] was 0.4 nM; with human Dectin-1 isoform A [9], 1.1 nM; in the experiment with human Dectin-1 isoform A [10], 0.4 nM; with human Dectin-1 isoform B [11] it was 1 nM; in the experiment with human Dectin-1 isoform B [12], 1 nM; with human Dectin-1 isoform A [13] it was 1.1 nM. The response in experiment [14] was half-maximal at 0.3 nM (EC50).

B5: 2M24A.1.14 hFab (Fab, V domains shown)
VH: B1 VH 1 with Y103A
VL: B1 VL 1
notes: Fab; also called 2M24.1.14
By koff is commonly meant a measure of how fast the partners let go of each other. As to B5, in experiment [15], the “X = 340” value worked out at 0.106 and the “X = 470” value stood at 0. For the same molecule, in experiment [16], the off-rate constant (koff) came to 0.313 s⁻¹. The molecule also registered a delta in experiment [17] of 100%.

B6: 2M24A.1.15 (Fab, V domains shown)
VH: B1 VH 1 with R98A
VL: B1 VL 1
notes: Fab; also called 2M24.1.15
For B6, in experiment [15], the “X = 290” value was 0.082 and the “X = 350” value came to 0.0314. Further, the off-rate (koff) in experiment [16] amounted to 0.0239 s⁻¹. In [17], this molecule registered a delta of 62%.
